Measurements reported in patent publication US20220251152A1, “COMPOSITIONS AND METHODS FOR SELECTIVE PROTEIN DEGRADATION” (Novartis AG, priority 2019, published 2022).
“Also recorded” adds a separate entry of the source.

What was measured:
[1] = test system: NanoLuciferase fused to various IKZF3-based degradation tags; assay: Western blot of variant IKZF3-based degradation tags fused to NanoLuciferase in HEK293T cells; format: cell-based, human; conditions: tag fused to N-terminus of NanoLuciferase
Method: Additionally, the IKZF3-based degradation tags were modified using the following strategies:
(1) deleting N-terminal and/or C-terminal amino acid residues;
Protein degradation was measured using western blot as described in Example 2.

[2] = test system: CAR19 fused to HilD tag and/or FurON; assay: Flow cytometry of surface CAR expression on JNL cells, 10 μM lenalidomide and/or bazedoxifene 24 hours; format: cell-based, human; conditions: surface CAR on transduced JNL cells; for % reduction in CAR expression / Effect of lenalidomide: 10 μM lenalidomide, 24 hours; for CAR Expression: flow cytometry, FurON constructs only in presence of bazedoxifene; for Effect of bazedoxifene: with/without bazedoxifene
Excerpt: Next, the surface expression of CAR19 on stably transduced JNL cells was examined by flow cytometry. […] On Day 2, cells were harvested, stained using biotinylated-protein L (Genscript, M00097) followed by PE conjugated streptavidin (Jackson Lab, 016-110-084), and subjected to flow cytometry analysis using Fortessa instrument.

## IKZF3 136-170 MALEK: IKZF3 136-170 with helix MALEKMALEKMALE, SEQ ID NO: 86
[1]
  ability of the tag to facilitate lenalidomide-dependent degradation of NanoLuciferase: retained the ability to facilitate lenalidomide-dependent degradation; also recorded: able to mediate lenalidomide-dependent degradation; also recorded: facilitated lenalidomide-induced degradation

B1: 6761 (protein)
chain: MALPVTALLLPLALLLHAARPEIVMTQSPATLSLSPGERATLSCRASQDISKYLNWYQQKPGQAPRLLIYHTSRLHSGIPARFSGSGSGTDYTLTISSLQPEDFAVYFCQQGNTLPYTFGQGTKLEIKGGGGSGGGGSGGGGSQVQLQESGPGLVKPSETLSLTCTVSGVSLPDYGVSWIRQPPGKGLEWIGVIWGSETTYYQSSLKSRVTISKDNSKNQVSLKLSSVTAADTAVYYCAKHYYYGGSYAMDYWGQGTLVTVSSTTTPAPRPPTPAPTIASQPLSLRPEACRPAAGGAVHTRGLDFACDIYIWAPLAGTCGVLLLSLVITLYCKRGRKKLLYIFKQPFMRPVQTTQEEDGCSCRFPEEEEGGCELRVKFSRSADAPAYQQGQNQLYNELNLGRREEYDVLDKRRGRDPEMGGKPRRKNPQEGLYNELQKDKMAEAYSEIGMKGERRRGKGHDGLYQGLSTATKDTYDALHMQALPPRKGGGSKGGGTKGGGSKMHKRSHTGERPFQCNQCGASFTQKGNLLRHIKLHTGEKPFKCHLCNTASAEARHIKAEMGGKPIPNPLLGLDST
[2]
  % reduction in CAR expression: 77%
  Effect of lenalidomide: Yes
  CAR Expression: Yes

B2: 768 (protein)
chain: MALPVTALLLPLALLLHAARPEIVMTQSPATLSLSPGERATLSCRASQDISKYLNWYQQKPGQAPRLLIYHTSRLHSGIPARFSGSGSGTDYTLTISSLQPEDFAVYFCQQGNTLPYTFGQGTKLEIKGGGGSGGGGSGGGGSQVQLQESGPGLVKPSETLSLTCTVSGVSLPDYGVSWIRQPPGKGLEWIGVIWGSETTYYQSSLKSRVTISKDNSKNQVSLKLSSVTAADTAVYYCAKHYYYGGSYAMDYWGQGTLVTVSSTTTPAPRPPTPAPTIASQPLSLRPEACRPAAGGAVHTRGLDFACDIYIWAPLAGTCGVLLLSLVITLYCKRGRKKLLYIFKQPFMRPVQTTQEEDGCSCRFPEEEEGGCELRVKFSRSADAPAYQQGQNQLYNELNLGRREEYDVLDKRRGRDPEMGGKPRRKNPQEGLYNELQKDKMAEAYSEIGMKGERRRGKGHDGLYQGLSTATKDTYDALHMQALPPRGGGGSGGGGTGGGGSGMHKRSHTGERPFQCNQCGASFTQKGNLLRHIKLHTGEKPFKCHLCNTASAEARHIKAEMGGKPIPNPLLGLDST
[2]
  % reduction in CAR expression: 88%
  Effect of lenalidomide: Yes
  CAR Expression: Yes

B3: 765 (protein)
chain: MALPVTALLLPLALLLHAARPRSSLALSLTADQMVSALLDAEPPILYSEYDPTRPFSEASMMGLLTNLADRELVHMINWAKRVPGFVDLALHDQVHLLECAWMEILMIGLVWRSMEHPGKLLFAPNLLLDRNQGKCVEGGVEIFDMLLATSSRFRMMNLQGEEFVCLKSIILLNSGVYTFLSSTLKSLEEKDHIHRVLDKITDTLIHLMAKAGLTLQQQHQRLAQLLLILSHIRHMSSKRMEHLYSMKCKNVVPLSDLLLEMLDAHRLGTGAEDPRPSRKRRSLGDVGEIVMTQSPATLSLSPGERATLSCRASQDISKYLNWYQQKPGQAPRLLIYHTSRLHSGIPARFSGSGSGTDYTLTISSLQPEDFAVYFCQQGNTLPYTFGQGTKLEIKGGGGSGGGGSGGGGSQVQLQESGPGLVKPSETLSLTCTVSGVSLPDYGVSWIRQPPGKGLEWIGVIWGSETTYYQSSLKSRVTISKDNSKNQVSLKLSSVTAADTAVYYCAKHYYYGGSYAMDYWGQGTLVTVSSTTTPAPRPPTPAPTIASQPLSLRPEACRPAAGGAVHTRGLDFACDIYIWAPLAGTCGVLLLSLVITLYCKRGRKKLLYIFKQPFMRPVQTTQEEDGCSCRFPEEEEGGCELRVKFSRSADAPAYQQGQNQLYNELNLGRREEYDVLDKRRGRDPEMGGKPRRKNPQEGLYNELQKDKMAEAYSEIGMKGERRRGKGHDGLYQGLSTATKDTYDALHMQALPPR
[2]
  Effect of lenalidomide: No
  CAR Expression: Yes
  Effect of bazedoxifene: Yes

B4: 769 (protein)
chain: MALPVTALLLPLALLLHAARPEIVMTQSPATLSLSPGERATLSCRASQDISKYLNWYQQKPGQAPRLLIYHTSRLHSGIPARFSGSGSGTDYTLTISSLQPEDFAVYFCQQGNTLPYTFGQGTKLEIKGGGGSGGGGSGGGGSQVQLQESGPGLVKPSETLSLTCTVSGVSLPDYGVSWIRQPPGKGLEWIGVIWGSETTYYQSSLKSRVTISKDNSKNQVSLKLSSVTAADTAVYYCAKHYYYGGSYAMDYWGQGTLVTVSSTTTPAPRPPTPAPTIASQPLSLRPEACRPAAGGAVHTRGLDFACDIYIWAPLAGTCGVLLLSLVITLYCKRGRKKLLYIFKQPFMRPVQTTQEEDGCSCRFPEEEEGGCELRVKFSRSADAPAYQQGQNQLYNELNLGRREEYDVLDKRRGRDPEMGGKPRRKNPQEGLYNELQKDKMAEAYSEIGMKGERRRGKGHDGLYQGLSTATKDTYDALHMQALPPRGGGGSGGGGTGGGGSGMHKRSHTGERPFQCNQCGASFTQKGNLLRHIKLHTGEKPFKCHLCNTASAEARHIKAEMG
[2]
  % reduction in CAR expression: 90%
  Effect of lenalidomide: Yes
  CAR Expression: Yes

B5: 766 (protein)
chain: MALPVTALLLPLALLLHAARPRSSLALSLTADQMVSALLDAEPPILYSEYDPTRPFSEASMMGLLTNLADRELVHMINWAKRVPGFVDLALHDQVHLLECAWMEILMIGLVWRSMEHPGKLLFAPNLLLDRNQGKCVEGGVEIFDMLLATSSRFRMMNLQGEEFVCLKSIILLNSGVYTFLSSTLKSLEEKDHIHRVLDKITDTLIHLMAKAGLTLQQQHQRLAQLLLILSHIRHMSSKRMEHLYSMKCKNVVPLSDLLLEMLDAHRLGTGAEDPRPSRKRRSLGDVGEIVMTQSPATLSLSPGERATLSCRASQDISKYLNWYQQKPGQAPRLLIYHTSRLHSGIPARFSGSGSGTDYTLTISSLQPEDFAVYFCQQGNTLPYTFGQGTKLEIKGGGGSGGGGSGGGGSQVQLQESGPGLVKPSETLSLTCTVSGVSLPDYGVSWIRQPPGKGLEWIGVIWGSETTYYQSSLKSRVTISKDNSKNQVSLKLSSVTAADTAVYYCAKHYYYGGSYAMDYWGQGTLVTVSSTTTPAPRPPTPAPTIASQPLSLRPEACRPAAGGAVHTRGLDFACDIYIWAPLAGTCGVLLLSLVITLYCKRGRKKLLYIFKQPFMRPVQTTQEEDGCSCRFPEEEEGGCELRVKFSRSADAPAYQQGQNQLYNELNLGRREEYDVLDKRRGRDPEMGGKPRRKNPQEGLYNELQKDKMAEAYSEIGMKGERRRGKGHDGLYQGLSTATKDTYDALHMQALPPRGGGGSGGGGTGGGGSGMHKRSHTGERPFQCNQCGASFTQKGNLLRHIKLHTGEKPFKCHLCNTASAEARHIKAEMGGKPIPNPLLGLDST
[2]
  % reduction in CAR expression: 92%
  Effect of lenalidomide: Yes
  CAR Expression: Yes
  Effect of bazedoxifene: Yes

B6: 773 (protein)
chain: MALPVTALLLPLALLLHAARPRSSLAHKRSHTGERPFQCNQCGASFTQKGNLLRHIKLHTGEKPFKCHLCNTASAEARHIKAEMGGTGAEDPRPSRKRRSLGDVGEIVMTQSPATLSLSPGERATLSCRASQDISKYLNWYQQKPGQAPRLLIYHTSRLHSGIPARFSGSGSGTDYTLTISSLQPEDFAVYFCQQGNTLPYTFGQGTKLEIKGGGGSGGGGSGGGGSQVQLQESGPGLVKPSETLSLTCTVSGVSLPDYGVSWIRQPPGKGLEWIGVIWGSETTYYQSSLKSRVTISKDNSKNQVSLKLSSVTAADTAVYYCAKHYYYGGSYAMDYWGQGTLVTVSSTTTPAPRPPTPAPTIASQPLSLRPEACRPAAGGAVHTRGLDFACDIYIWAPLAGTCGVLLLSLVITLYCKRGRKKLLYIFKQPFMRPVQTTQEEDGCSCRFPEEEEGGCELRVKFSRSADAPAYQQGQNQLYNELNLGRREEYDVLDKRRGRDPEMGGKPRRKNPQEGLYNELQKDKMAEAYSEIGMKGERRRGKGHDGLYQGLSTATKDTYDALHMQALPPR
[2]
  % reduction in CAR expression: 4%
  Effect of lenalidomide: No
  CAR Expression: Yes

B7: 774 (protein)
chain: MALPVTALLLPLALLLHAARPHKRSHTGERPFQCNQCGASFTQKGNLLRHIKLHTGEKPFKCHLCNTASAEARHIKAEMGGTGAEDPRPSRKRRSLGDVGEIVMTQSPATLSLSPGERATLSCRASQDISKYLNWYQQKPGQAPRLLIYHTSRLHSGIPARFSGSGSGTDYTLTISSLQPEDFAVYFCQQGNTLPYTFGQGTKLEIKGGGGSGGGGSGGGGSQVQLQESGPGLVKPSETLSLTCTVSGVSLPDYGVSWIRQPPGKGLEWIGVIWGSETTYYQSSLKSRVTISKDNSKNQVSLKLSSVTAADTAVYYCAKHYYYGGSYAMDYWGQGTLVTVSSTTTPAPRPPTPAPTIASQPLSLRPEACRPAAGGAVHTRGLDFACDIYIWAPLAGTCGVLLLSLVITLYCKRGRKKLLYIFKQPFMRPVQTTQEEDGCSCRFPEEEEGGCELRVKFSRSADAPAYQQGQNQLYNELNLGRREEYDVLDKRRGRDPEMGGKPRRKNPQEGLYNELQKDKMAEAYSEIGMKGERRRGKGHDGLYQGLSTATKDTYDALHMQALPPR
[2]
  % reduction in CAR expression: 5%
  Effect of lenalidomide: No
  CAR Expression: Yes

B8: 767 (protein)
chain: MALPVTALLLPLALLLHAARPRSSLALSLTADQMVSALLDAEPPILYSEYDPTRPFSEASMMGLLTNLADRELVHMINWAKRVPGFVDLALHDQVHLLECAWMEILMIGLVWRSMEHPGKLLFAPNLLLDRNQGKCVEGGVEIFDMLLATSSRFRMMNLQGEEFVCLKSIILLNSGVYTFLSSTLKSLEEKDHIHRVLDKITDTLIHLMAKAGLTLQQQHQRLAQLLLILSHIRHMSSKRMEHLYSMKCKNVVPLSDLLLEMLDAHRLGTGAEDPRPSRKRRSLGDVGEIVMTQSPATLSLSPGERATLSCRASQDISKYLNWYQQKPGQAPRLLIYHTSRLHSGIPARFSGSGSGTDYTLTISSLQPEDFAVYFCQQGNTLPYTFGQGTKLEIKGGGGSGGGGSGGGGSQVQLQESGPGLVKPSETLSLTCTVSGVSLPDYGVSWIRQPPGKGLEWIGVIWGSETTYYQSSLKSRVTISKDNSKNQVSLKLSSVTAADTAVYYCAKHYYYGGSYAMDYWGQGTLVTVSSTTTPAPRPPTPAPTIASQPLSLRPEACRPAAGGAVHTRGLDFACDIYIWAPLAGTCGVLLLSLVITLYCKRGRKKLLYIFKQPFMRPVQTTQEEDGCSCRFPEEEEGGCELRVKFSRSADAPAYQQGQNQLYNELNLGRREEYDVLDKRRGRDPEMGGKPRRKNPQEGLYNELQKDKMAEAYSEIGMKGERRRGKGHDGLYQGLSTATKDTYDALHMQALPPRGGGGSGGGGTGGGGSGMHKRSHTGERPFQCNQCGASFTQKGNLLRHIKLHTGEKPFKCHLCNTASAEARHIKAEMG
[2]
  % reduction in CAR expression: 95%
  Effect of lenalidomide: Yes
  CAR Expression: Yes
  Effect of bazedoxifene: Yes
